Consider two substances from patent US20230130737A1.

Assay [1] has as its target trifunctional high FHR4-valence heteromultimer multi-FHR4.C4bpα.His/multi-2D3 VHH anti-Her2.C4bpα.FLAG/mono-eGFP.C4bpβ (human) (UniProt Q92496). In words: SPR (Biacore); FH multimer immobilised via Ni2+/NTA, C3b dose series as analyte.
Assay [2] shares this target. Description: SPR (Biacore); affinity with factor B against C3b alone.
The target is the same in assay [3]. Description: SPR (Biacore); bound RU with factor B against C3b alone. A general note: Surface plasmon resonance follows binding to a sensor surface in real time, without labels.
For assay [4] the target is unchanged. Description: SPR (Biacore); FH multimer immobilised via Ni2+/NTA, C3b dose series with about 20 µg/ml Factor B as analyte.

trifunctional high FHR4-valence heteromultimer multi-FHR4.C4bpα.His/multi-2D3 VHH anti-Her2.C4bpα.FLAG/mono-eGFP.C4bpβ (human), sequence (Q92496 other isoform, or with tags, fused parts or gaps, chain 1 of 3): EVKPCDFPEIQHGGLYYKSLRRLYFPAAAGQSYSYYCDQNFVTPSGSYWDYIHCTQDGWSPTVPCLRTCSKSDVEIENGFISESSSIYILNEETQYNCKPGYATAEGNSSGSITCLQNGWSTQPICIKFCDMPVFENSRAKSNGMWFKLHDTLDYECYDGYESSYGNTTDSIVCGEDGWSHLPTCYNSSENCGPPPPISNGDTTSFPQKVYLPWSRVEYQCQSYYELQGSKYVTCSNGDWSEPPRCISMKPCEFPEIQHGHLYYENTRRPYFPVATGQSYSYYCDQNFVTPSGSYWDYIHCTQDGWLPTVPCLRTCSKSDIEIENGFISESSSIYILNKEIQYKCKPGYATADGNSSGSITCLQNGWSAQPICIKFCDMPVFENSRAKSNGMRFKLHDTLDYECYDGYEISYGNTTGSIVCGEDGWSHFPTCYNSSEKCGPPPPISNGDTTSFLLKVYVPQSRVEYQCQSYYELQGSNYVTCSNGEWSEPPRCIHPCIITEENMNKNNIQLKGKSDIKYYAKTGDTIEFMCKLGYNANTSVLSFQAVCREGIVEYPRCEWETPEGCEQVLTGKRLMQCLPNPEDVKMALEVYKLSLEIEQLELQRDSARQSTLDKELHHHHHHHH
trifunctional high FHR4-valence heteromultimer multi-FHR4.C4bpα.His/multi-2D3 VHH anti-Her2.C4bpα.FLAG/mono-eGFP.C4bpβ (human), sequence (P04003 540-597, chain 2 of 3, further chain): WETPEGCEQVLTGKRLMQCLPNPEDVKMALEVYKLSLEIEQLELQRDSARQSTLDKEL
trifunctional high FHR4-valence heteromultimer multi-FHR4.C4bpα.His/multi-2D3 VHH anti-Her2.C4bpα.FLAG/mono-eGFP.C4bpβ (human), sequence (P20851 137-252, chain 3 of 3, further chain): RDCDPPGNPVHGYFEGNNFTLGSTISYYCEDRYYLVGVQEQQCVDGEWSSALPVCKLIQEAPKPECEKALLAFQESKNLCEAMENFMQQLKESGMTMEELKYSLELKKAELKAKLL

C3b (from UniProt P01024 749-1663): the Kd in assay [1] was 952 nM.

“C3b in the presence of Factor B (about 20 µg/ml) (from UniProt P01024 23-1663; P00751 26-764)”: in assay [2], the increase of binding affinity against C3b alone was 2 logs. Also, the enhancement factor of bound C3b against C3b alone in assay [3] was 5 fold. Besides, the Kd in assay [4] turned out to be 8.73 nM.

Usually Kd stands for a measure of binding affinity in units of concentration.
